# In PMC9712776 (2022):
# B1: dynamin-2 (human Dyn2 isoform 1), wild type [human] / GST-tagged SH3 domain of endophilin [mouse] (parent complex)
# chain 1: MGNRGMEELIPLVNKLQDAFSSIGQSCHLDLPQIAVVGGQSAGKSSVLENFVGRDFLPRGSGIVTRRPLILQLIFSKTEHAEFLHCKSKKFTDFDEVRQEIEAETDRVTGTNKGISPVPINLRVYSPHVLNLTLIDLPGITKVPVGDQPPDIEYQIKDMILQFISRESSLILAVTPANMDLANSDALKLAKEVDPQGLRTIGVITKLDLMDEGTDARDVLENKLLPLRRGYIGVVNRSQKDIEGKKDIRAALAAERKFFLSHPAYRHMADRMGTPHLQKTLNQQLTNHIRESLPALRSKLQSQLLSLEKEVEEYKNFRPDDPTRKTKALLQMVQQFGVDFEKRIEGSGDQVDTLELSGGARINRIFHERFPFELVKMEFDEKDLRREISYAIKNIHGVRTGLFTPDLAFEAIVKKQVVKLKEPCLKCVDLVIQELINTVRQCTSKLSSYPRLREETERIVTTYIREREGRTKDQILLLIDIEQSYINTNHEDFIGFANAQQRSTQLNKKRAIPNQGEILVIRRGWLTINNISLMKGGSKEYWFVLTAESLSWYKDEEEKEKKYMLPLDNLKIRDVEKGFMSNKHVFAIFNTEQRNVYKDLRQIELACDSQEDVDSWKASFLRAGVYPEKDQAENEDGAQENTFSMDPQLERQVETIRNLVDSYVAIINKSIRDLMPKTIMHLMINNTKAFIHHELLAYLYSSADQSSLMEESADQAQRRDDMLRMYHALKEALNIIGDISTSTVSTPVPPPVDDTWLQSASSHSPTPQRRPVSSIHPPGRPPAVRGPTPGPPLIPVPVGAAASFSAPPIPSRPGPQSVFANSDLFPAPPQIPSRPVRIPPGIPPGVPSRRPPAAPSRPTIIRPAEPSLLD
# chain 2: not shown
# Variants of: B1
# Test: GST pulldown; 12 µg GST-endophilin-SH3, 6 µg purified Dyn2; parent: 1; read off a plot
row,ratio to parent,Variant
1,~0.93,chain 1 S848E
2,~1.1,chain 1 S848A
